Assay results from the RNAGym collection of RNA variant scans (doi:10.7554/elife.80360).

B1: CPEB3 Ribozyme (parent)
chain: GGGGGCCACAGCAGAAGCGUUCACGUCGCGGCCCCUGUCAGAUUCUGGUGAAUCUGCGAAUUCUGCUGU

Variants of: B1
Test: self-cleavage, relative activity (ratio to wild type); higher = more cleavage; co-transcriptional

Point of comparison: GGGGGCCACAGCAGAAGCGUUCACGUCGCGGCCCCUGUCAGAAUCUGGUGAAUCUGCGAAUUCUGUUGU, self-cleavage 0.831. Against it:
- GGGGGCCACAGCAGAAGCGUUCACGUCGCGGCCCCUGUCAGAAUCUGGUGAUUCUGCGAAUUCUGCUGU — higher, 0.926
- GGGGGCCACAGCAGAAGCGUUCACGUCGCGGCCCCUGUCAGAAUAUGGUGAAUCUGCGAAUUCUGCUGU — higher, 0.859
- GGGGGCCACAGCAGAAGCGUUCACGUCGCGGCCCCUGUCAGAAUUUGGUGAAUCUGCGAAUUCUGCUGU — higher, 1.03
- GGGGGCCACAGCAGAAGCGUUCACGUCGCGGCCCCUGUCAGAAUCUGGUGAAUGUGCGAAUUCUGCUGU — lower, 0.418
- GGGGGCCACAGCAGAAGCGUUCACGUCGCGGCCCCUGUCAGAAUCUGGUGAAUAUGCGAAUUCUGCUGU — lower, 0.599
- GGGGGCCACAGCAGAAGCGUUCACGUCGCGGCCCCUGUCAGACUUUGGUGAAUCUGCGAAUUCUGCUGU — higher, 1.01
- GGGGGCCACAGCAGAAGCGUUCACGUCGCGGCCCCUGUCAGAAUCUGGUGAAUCUGCGAAUUCUGCAGU — higher, 0.919
- GGGGGCCACAGCAGAAGCGUUCACGUCGCGGCCCCUGUCAGAAUCUGGUGAAUCUGCGAAUUCUGCCGU — higher, 0.895
- GGGGGCCACAGCAGAAGCGUUCACGUCGCGGCCCCUGUCAGAAUCUGGUGAAUCUGCGAGUUCUGCUGU — lower, 0.683
- GGGGGCCACAGCAGAAGCGUUCACGUCGCGGCCCCUGUCAGAAUCUGGUGAAUCUGCGAUUUCUGCUGU — lower, 0.29
- GGGGGCCACAGCAGAAGCGUUCACGUCGCGGCCCCUGUCAGAAUCUGGUGAAUCUGCAAAUUCUGCUGU — higher, 0.929
- GGGGGCCACAGCAGAAGCGUUCACGUCGCGGCCCCUGUCAGAAUCUGGUGAAUCUGCUAAUUCUGCUGU — higher, 0.946
- GGGGGCCACAGCAGAAGCGUUCACGUCGCGGCCCCUGUCAGAAUCUGGUGAAUCUGCGAAUUCUGCUGA — higher, 0.974
- GGGGGCCACAGCAGAAGCGUUCACGUCGCGGCCCCUGUCAGAAUCUGGUGAAUCUGCGAAUUCUGCUGG — higher, 1.01
- GGGGGCCACAGCAGAAGCGUUCACGUCGCGGCCCCUGUCAGAAUCUGGUGAAUCUGCGAAUUCCGCUGU — lower, 0.649
- GGGGGCCACAGCAGAAGCGUUCACGUCGCGGCCCCUGUCAGAAUCUGGUGAAUCUGCGAAUUCAGCUGU — lower, 0.591
- GGGGGCCACAGCAGAAGCGUUCACGUCGCGGCCCCUGUCAGAAUCUGGUGAAUCUGCGAAUGCUGCUGU — lower, 0.641
- GGGGGCCACAGCAGAAGCGUUCACGUCGCGGCCCCUGUCAGAAUCUGGUGAAUCUGCGAAUACUGCUGU — lower, 0.587
- GGGGGCCACAGCAGAAGCGUUCACGUCGCGGCCCCUGUCAGAAUCUGGAGAAUCUGCGAAUUCUGCUGU — higher, 0.944
- GGGGGCCACAGCAGAAGCGUUCACGUCGCGGCCCCUGUCAGAAUCUGGGGAAUCUGCGAAUUCUGCUGU — higher, 0.955
- GGGGGCCACAGCAGAAGCGUUCACGUCGCGGCCCCUGUCAGAAUCUGGCGAAUCUGCGAAUUCUGCUGU — higher, 0.939
- GGGGGCCACAGCAGAAGCGUUCACGUCGCGGCCCCUGUCAGAAUCUGGUGAAGCUGCGAAUUCUGCUGU — lower, 0.773
- GGGGGCCACAGCAGAAGCGUUCACGUCGCGGCCCCUGUCAGUUUCUGGUGAAUCUGCGAAUUCAGCUGU — lower, 0.726
- GGGGGCCACAGCAGAAGCGUUCACGUCGCGGCCCCUGUCAGUUUCUGGUGAAUCUGCGAAUUCGGCUGU — lower, 0.722
- GGGGGCCACAGCAGAAGCGUUCACGUCGCGGCCCCUGUCAGACUCUGGUGAAUGUGCGAAUUCUGCUGU — lower, 0.585
- GGGGGCCACAGCAGAAGCGUUCACGUCGCGGCCCCUGUCAGUUUCUGGUGAAUCUGCGAAUUCUGCGGU — higher, 0.951
- GGGGGCCACAGCAGAAGCGUUCACGUCGCGGCCCCUGUCAGUUUCUGGUGAAUCUGCGAAUUCUGCAGU — higher, 0.95
- GGGGGCCACAGCAGAAGCGUUCACGUCGCGGCCCCUGUCAGAAUCUGGUGAAUCUGAGAAUUCUGCUGU — lower, 0.271
- GGGGGCCACAGCAGAAGCGUUCACGUCGCGGCCCCUGUCAGAAUCUGGUGAAUCUGUGAAUUCUGCUGU — lower, 0.41
- GGGGGCCACAGCAGAAGCGUUCACGUCGCGGCCCCUGUCAGAAUCCGGUGAAUCUGCGAAUUCUGCUGU — higher, 0.952
- GGGGGCCACAGCAGAAGCGUUCACGUCGCGGCCCCUGUCAGAAUCAGGUGAAUCUGCGAAUUCUGCUGU — higher, 0.958
- GGGGGCCACAGCAGAAGCGUUCACGUCGCGGCCCCUGUCAGAAUCGGGUGAAUCUGCGAAUUCUGCUGU — higher, 0.943
- GGGGGCCACAGCAGAAGCGUUCACGUCGCGGCCCCUGUCAGAAUCUGGUGAAUCUGCGAAUUCUCCUGU — lower, 0.349
- GGGGGCCACAGCAGAAGCGUUCACGUCGCGGCCCCUGUCAGAAUCUGGUGAAUCUGCGAAUUCUUCUGU — lower, 0.392
- GGGGGCCACAGCAGAAGCGUUCACGUCGCGGCCCCUGUCAGAAUCUGGUGAAUCUGCGAAUUCUACUGU — lower, 0.49
- GGGGGCCACAGCAGAAGCGUUCACGUCGCGGCCCCUGUCAGAAUCUGUUGAAUCUGCGAAUUCUGCUGU — higher, 0.983
- GGGGGCCACAGCAGAAGCGUUCACGUCGCGGCCCCUGUCAGAAUCUGAUGAAUCUGCGAAUUCUGCUGU — higher, 1.04
- GGGGGCCACAGCAGAAGCGUUCACGUCGCGGCCCCUGUCAGAAUCUGGUGAAUCUGCGAAUUGUGCUGU — lower, 0.45
- GGGGGCCACAGCAGAAGCGUUCACGUCGCGGCCCCUGUCAGAAUCUGGUGAAUCUGCGAAUUAUGCUGU — lower, 0.504
- GGGGGCCACAGCAGAAGCGUUCACGUCGCGGCCCCUGUCAGAAUCUGGUGAAUCUGCGAAUUCUGAUGU — lower, 0.416
- GGGGGCCACAGCAGAAGCGUUCACGUCGCGGCCCCUGUCAGACUCUGGUGCAUCUGCGAAUUCUGCUGU — higher, 0.968
- GGGGGCCACAGCAGAAGCGUUCACGUCGCGGCCCCUGUCAGACUCUGGUGAAUCUGCGGAUUCUGCUGU — higher, 1.02
- GGGGGCCACAGCAGAAGCGUUCACGUCGCGGCCCCUGUCAGACUCUGGUGAAUCUGCGUAUUCUGCUGU — lower, 0.68
- GGGGGCCACAGCAGAAGCGUUCACGUCGCGGCCCCUGUCAGACUCUGGUGAAUCUGCGCAUUCUGCUGU — lower, 0.652
- GGGGGCCACAGCAGAAGCGUUCACGUCGCGGCCCCUGUCAGAAUCUGGUGAAUCUGCGAAUUCUGCUCU — higher, 1.01
- GGGGGCCACAGCAGAAGCGUUCACGUCGCGGCCCCUGUCAGAAUCUGGUGAAUCUGCGAAUUCUGCUUU — higher, 0.973
- GGGGGCCACAGCAGAAGCGUUCACGUCGCGGCCCCUGUCAGAAACUGGUGAAUCUGCGAAUUCUGCUGU — higher, 0.888
- GGGGGCCACAGCAGAAGCGUUCACGUCGCGGCCCCUGUCAGAACCUGGUGAAUCUGCGAAUUCUGCUGU — higher, 0.987
- GGGGGCCACAGCAGAAGCGUUCACGUCGCGGCCCCUGUCAGAAGCUGGUGAAUCUGCGAAUUCUGCUGU — higher, 0.957
- GGGGGCCACAGCAGAAGCGUUCACGUCGCGGCCCCUGUCAGUUUCUGGUGAAUCGGCGAAUUCUGCUGU — lower, 0.276
- GGGGGCCACAGCAGAAGCGUUCACGUCGCGGCCCCUGUCAGUUUCUGGUGAAUCUGCGAAUCCUGCUGU — lower, 0.721
- GGGGGCCACAGCAGAAGCGUUCACGUCGCGGCCCCUGUCAGUUUCUGGUGAAUCUGCGAAUGCUGCUGU — lower, 0.738
- GGGGGCCACAGCAGAAGCGUUCACGUCGCGGCCCCUGUCAGUUUCUGGUGAAUCUGCGAAUACUGCUGU — lower, 0.809
- GGGGGCCACAGCAGAAGCGUUCACGUCGCGGCCCCUGUCAGAAUCUGGUGAAUCAGCGAAUUCUGCUGU — lower, 0.257
- GGGGGCCACAGCAGAAGCGUUCACGUCGCGGCCCCUGUCAGUUUCUGGUGAAUCUGCGAAAUCUGCUGU — lower, 0.744
- GGGGGCCACAGCAGAAGCGUUCACGUCGCGGCCCCUGUCAGUUUCUGGUGAAUCUGCGAAGUCUGCUGU — lower, 0.448
- GGGGGCCACAGCAGAAGCGUUCACGUCGCGGCCCCUGUCAGUUUCUGGUGAAUCUGCGAAUUCUGCUGC — higher, 1.04
- GGGGGCCACAGCAGAAGCGUUCACGUCGCGGCCCCUGUCAGUUUCUGGUGAAUCUGCGAAUUCUGCUGA — higher, 1
- GGGGGCCACAGCAGAAGCGUUCACGUCGCGGCCCCUGUCAGAAUCUGGUGAAUCUACGAAUUCUGCUGU — lower, 0.641
- GGGGGCCACAGCAGAAGCGUUCACGUCGCGGCCCCUGUCAGAAUCUGGUGAAUCUUCGAAUUCUGCUGU — lower, 0.427
- GGGGGCCACAGCAGAAGCGUUCACGUCGCGGCCCCUGUCAGAAUCUGGUGAAUCUCCGAAUUCUGCUGU — lower, 0.336
- GGGGGCCACAGCAGAAGCGUUCACGUCGCGGCCCCUGUCAGACUCUGGUGAUUCUGCGAAUUCUGCUGU — higher, 1
- GGGGGCCACAGCAGAAGCGUUCACGUCGCGGCCCCUGUCAGACUCUGGUGACUCUGCGAAUUCUGCUGU — higher, 0.968
- GGGGGCCACAGCAGAAGCGUUCACGUCGCGGCCCCUGUCAGAAUCUGGUUAAUCUGCGAAUUCUGCUGU — higher, 0.959
- GGGGGCCACAGCAGAAGCGUUCACGUCGCGGCCCCUGUCAGAAUCUGGUAAAUCUGCGAAUUCUGCUGU — higher, 0.962
- GGGGGCCACAGCAGAAGCGUUCACGUCGCGGCCCCUGUCAGAAUCUGGUCAAUCUGCGAAUUCUGCUGU — higher, 0.91
- GGGGGCCACAGCAGAAGCGUUCACGUCGCGGCCCCUGUCAGACUCUGGUGAAUCUGCGAUUUCUGCUGU — lower, 0.415
- GGGGGCCACAGCAGAAGCGUUCACGUCGCGGCCCCUGUCAGACUCUGGUGAAUCUGCGAGUUCUGCUGU — lower, 0.798
- GGGGGCCACAGCAGAAGCGUUCACGUCGCGGCCCCUGUCAGACUCUGGUGAAUCUGCGACUUCUGCUGU — lower, 0.227
- GGGGGCCACAGCAGAAGCGUUCACGUCGCGGCCCCUGUCAGAAUCUGGUGAAUCUGCGAACUCUGCUGU — lower, 0.334
- GGGGGCCACAGCAGAAGCGUUCACGUCGCGGCCCCUGUCAGACUCUGGUGAAUCUGCGAAUUCUGCUGU — higher, 0.981
- GGGGGCCACAGCAGAAGCGUUCACGUCGCGGCCCCUGUCAGAAUCUGGUGAAUCUGCGAAUUCUGCUGU — higher, 0.953
- GGGGGCCACAGCAGAAGCGUUCACGUCGCGGCCCCUGUCAGAAUCUGGUGUAUCUGCGAAUUCUGCUGU — higher, 0.939
- GGGGGCCACAGCAGAAGCGUUCACGUCGCGGCCCCUGUCAGAAUCUGGUGGAUCUGCGAAUUCUGCUGU — higher, 0.928
- GGGGGCCACAGCAGAAGCGUUCACGUCGCGGCCCCUGUCAGAAUCUAGUGAAUCUGCGAAUUCUGCUGU — higher, 0.972
- GGGGGCCACAGCAGAAGCGUUCACGUCGCGGCCCCUGUCAGAAUCUUGUGAAUCUGCGAAUUCUGCUGU — higher, 0.987
- GGGGGCCACAGCAGAAGCGUUCACGUCGCGGCCCCUGUCAGAAUCUCGUGAAUCUGCGAAUUCUGCUGU — higher, 0.954
